Columns and labels:
[1] = molecular target: T1, 15N-labeled SPOP MATH domain (amino acids 28-166) (human, UniProt O43791 28-166, 15N-labeled); test: NMR titration; 1H-15N HSQC of 0.2 mM 15N-labeled SPOP MATH titrated with up to 3-fold molar excess of unlabeled peptide; 298 K; phosphate buffer, 50 mM NaCl, 5 mM DTT, pH 6.0; conditions: both partners purified
T1 construct: SPOP, human, MATH domain, residues 28-166; Hexahistidine tag cleaved with PreScission protease

SPOP MATH (D140G mutant) = molecular target: T2, SPOP MATH (D140G mutant) (human, UniProt O43791 28-166, D140G); test: crystal structure; 1.1 mM SPOP MATH D140G with 5.5 mM Geminin peptide; sitting drop, 22 °C; 3.4 Å; conditions: both partners purified
T2 construct: SPOP, human, MATH domain, residues 28-166, D140G; Purified 'using the same protocol' as the 15N-labeled MATH domain 28-166; also called SPOP-MATH domain (D140G mutant)
T2 sequence (O43791 28-166 D140G): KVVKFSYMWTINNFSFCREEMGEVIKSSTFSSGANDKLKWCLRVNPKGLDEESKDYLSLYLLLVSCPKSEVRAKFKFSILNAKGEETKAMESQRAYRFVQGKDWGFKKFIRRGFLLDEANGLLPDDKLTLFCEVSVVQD

T1 sequence (O43791 28-166): as the sequence (O43791 28-166 D140G) above, with G113D counted along it

B1: Geminin WT SBC-containing peptide (amino acids 195-209) (peptide)
peptide: AEGTVSSSTDAKPCI
notes: Geminin, human, residues 195-209; also called Geminin peptide; Geminin wild-type SBC peptide; source: synthetic peptide
**Q.** Which results are given for B1?
**A.** binding result [1]: binds; binding result (SPOP MATH (D140G mutant)): binds

Source: PMC8486843, “SPOP mutation induces replication over-firing by impairing Geminin ubiquitination and triggers replication catastrophe upon ATR inhibition” (Nature Communications, 2021)
